Where “and” joins values, the source holds several entries; their conditions need not be identical. Identical values can stand only once.
Key:
[1] = target: the molecule itself; test: SEC-SAXS
[2] = target: the molecule itself; test: cross-linking
[3] = target: the molecule itself; test: non-reducing SDS-PAGE
[4] = target: the molecule itself; test: SEC
[5] = target: the molecule itself; test: SEC; remark: listed apart in the source

Row | Protein | stoichiometry N [1] | stoichiometry N [2] | stoichiometry N [3] | binding result [4] | stoichiometry N [5]
1 | mouse myocilin leucine zipper construct mLZ_(93-171) (domain or fragment, UniProt O70624 93-171, looked up) VTGTQEAQEGLQGQLGALRRERDQLETQTRDLEAAYNNLLRDKSALEEEKRQLEQENEDLARRLESSSEEVTRLRRGQC | 2.2 |  |  |  | 
2 | myocilin coiled-coil construct CC_(69-185) (domain or fragment, human, UniProt Q99972 69-185, looked up) SVIHNLQRDSSTQRLDLEATKARLSSLESLLHQLTLDQAARPQETQEGLQRELGTLRRERDQLETQTRELETAYSNLLRDKSVLEEEKKRLRQENENLARRLESSSQEVARLRRGQC | 3.6 | 4 | 2 |  | 
3 | myocilin N-terminal domain construct NTD_(33-226), wild type (domain or fragment, human, UniProt Q99972 33-226, looked up) RTAQLRKANDQSGRCQYTFSVASPNESSCPEQSQAMSVIHNLQRDSSTQRLDLEATKARLSSLESLLHQLTLDQAARPQETQEGLQRELGTLRRERDQLETQTRELETAYSNLLRDKSVLEEEKKRLRQENENLARRLESSSQEVARLRRGQCPQTRDTARAVPPGSREVSTWNLDTLAFQELKSELTEVPASR |  | 2 and 4 | ~8 |  | 
4 | NTD_(33-226) (C47S/C61S/C185S) (domain or fragment, human, UniProt Q99972 33-226, looked up) RTAQLRKANDQSGRSQYTFSVASPNESSSPEQSQAMSVIHNLQRDSSTQRLDLEATKARLSSLESLLHQLTLDQAARPQETQEGLQRELGTLRRERDQLETQTRELETAYSNLLRDKSVLEEEKKRLRQENENLARRLESSSQEVARLRRGQSPQTRDTARAVPPGSREVSTWNLDTLAFQELKSELTEVPASR |  |  |  | binds | 
5 | myocilin coiled-coil construct CC_(112-185) (domain or fragment, human, UniProt Q99972 112-185, looked up) ETQEGLQRELGTLRRERDQLETQTRELETAYSNLLRDKSVLEEEKKRLRQENENLARRLESSSQEVARLRRGQC | 2.4 |  |  |  | 2
6 | myocilin construct CC_(33-111) (domain or fragment, human, UniProt Q99972 33-111, looked up) RTAQLRKANDQSGRCQYTFSVASPNESSCPEQSQAMSVIHNLQRDSSTQRLDLEATKARLSSLESLLHQLTLDQAARPQ | 2.8 | 2 |  |  | 4
7 | myocilin coiled-coil construct CC_(60-185) (domain or fragment, human, UniProt Q99972 60-185, looked up) SCPEQSQAMSVIHNLQRDSSTQRLDLEATKARLSSLESLLHQLTLDQAARPQETQEGLQRELGTLRRERDQLETQTRELETAYSNLLRDKSVLEEEKKRLRQENENLARRLESSSQEVARLRRGQC | 4.9 |  |  |  | 
8 | myocilin coiled-coil construct CC_(69-184) (domain or fragment, human, UniProt Q99972 69-184, looked up) SVIHNLQRDSSTQRLDLEATKARLSSLESLLHQLTLDQAARPQETQEGLQRELGTLRRERDQLETQTRELETAYSNLLRDKSVLEEEKKRLRQENENLARRLESSSQEVARLRRGQ |  |  |  |  | 4
